Test results as given in the supplement of paper PMC11875167.

Assay: observed amide hydrogen exchange rate constant kobs (stretched exponential fit, FD-normalized) (s^-1); higher = faster H/D exchange (less protection)
Conditions: pH 3 (pH read); temperature: 20 °C; D2O: 88%
Summary of the method: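 Jurkat tryptic peptides (LysC/trypsin, carbamidomethylated cysteines) were labeled in 88% D2O, pHread 3, 20 °C, quenched with 0.23% formic acid at 13 times from 18 to 93,600 s, in processing triplicates. MS1 uptake (Q-Exactive HF, HDExaminer, no back-exchange correction) was normalized to full-deuteration controls (24 h, 37 °C). Curves were fitted to a stretched single exponential with β = 0.8. The observed exchange rate constant kobs is the fitted rate.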

## EGIPALDNFLDKL
  observed amide hydrogen exchange rate constant kobs: 0.00119

## SLAGSSGPGASSGTSGDHGELVVR
  observed amide hydrogen exchange rate constant kobs: 0.00237

## LVIEEAER
  observed amide hydrogen exchange rate constant kobs: 0.00116

## LMGLEALK
  observed amide hydrogen exchange rate constant kobs: 0.000548

## IQLINNMLDK
  observed amide hydrogen exchange rate constant kobs: 0.00081

## PYVEEGLHPQIIIR
  observed amide hydrogen exchange rate constant kobs: 0.000843

## CPNLTHLNLSGNK
  observed amide hydrogen exchange rate constant kobs: 0.00139

## EFHLNESGDPSSK
  observed amide hydrogen exchange rate constant kobs: 0.00132

## IIDVVYNASNNELVR
  observed amide hydrogen exchange rate constant kobs: 0.00138

## LFIGGLNTETNEK
  observed amide hydrogen exchange rate constant kobs: 0.00144

## VYVGNLGNNGNK
  observed amide hydrogen exchange rate constant kobs: 0.00211

## SGYLAGDK
  observed amide hydrogen exchange rate constant kobs: 0.00168

## ALWFQGR
  observed amide hydrogen exchange rate constant kobs: 0.00126

## GDEELDSLIK
  observed amide hydrogen exchange rate constant kobs: 0.000999

## GYFEYIEENK
  observed amide hydrogen exchange rate constant kobs: 0.00229

## GNSIIMLEALERV
  observed amide hydrogen exchange rate constant kobs: 0.00109

## LVPGGGATEIELAK
  observed amide hydrogen exchange rate constant kobs: 0.00089

## RGLEVNK
  observed amide hydrogen exchange rate constant kobs: 0.00164

## LRQPFFQK
  observed amide hydrogen exchange rate constant kobs: 0.00093

## SADTLWGIQK
  observed amide hydrogen exchange rate constant kobs: 0.000987

## IEDLSQQAQLAAAEK
  observed amide hydrogen exchange rate constant kobs: 0.0009

## MVLVGDVK
  observed amide hydrogen exchange rate constant kobs: 0.000602

## VLEQLTGQTPVFSK
  observed amide hydrogen exchange rate constant kobs: 0.00081

## IGPLGLSPK
  observed amide hydrogen exchange rate constant kobs: 0.000838

## DNLTLWTSDMQGDGEEQNK
  observed amide hydrogen exchange rate constant kobs: 0.00177

## LVPVGYGIK
  observed amide hydrogen exchange rate constant kobs: 0.000648

## AQQELEEQTRR
  observed amide hydrogen exchange rate constant kobs: 0.00236

## NPDDITNEEYGEFYK
  observed amide hydrogen exchange rate constant kobs: 0.00176

## NQVAMNPTNTVFDAK
  observed amide hydrogen exchange rate constant kobs: 0.000774

## REEEEFNTGPLSVLTQSVK
  observed amide hydrogen exchange rate constant kobs: 0.00112

## LDNLVAILDINR
  observed amide hydrogen exchange rate constant kobs: 0.00063

## VEGTEPTTAFNLFVGNLNFNK
  observed amide hydrogen exchange rate constant kobs: 0.000826

## TEWLDGK
  observed amide hydrogen exchange rate constant kobs: 0.00181

## GCITIIGGGDTATCCAK
  observed amide hydrogen exchange rate constant kobs: 0.00119

## DLSTIEPLK
  observed amide hydrogen exchange rate constant kobs: 0.000669

## EFEPLLNWMK
  observed amide hydrogen exchange rate constant kobs: 0.000734

## GGGQIIPTAR
  observed amide hydrogen exchange rate constant kobs: 0.000898

## GNPTVEVDLFTSK
  observed amide hydrogen exchange rate constant kobs: 0.000833

## DAGPLLISLK
  observed amide hydrogen exchange rate constant kobs: 0.000622

## AFAMIIDK
  observed amide hydrogen exchange rate constant kobs: 0.000626

## HALIIYDDLSK
  observed amide hydrogen exchange rate constant kobs: 0.00058

## ATFMVGSYGPRPEEYEFLTPVEEAPK
  observed amide hydrogen exchange rate constant kobs: 0.00103

## LAAIAESGVER
  observed amide hydrogen exchange rate constant kobs: 0.000919

## TSFFQALGITTK
  observed amide hydrogen exchange rate constant kobs: 0.00062

## AYHEQLSVAEITNACFEPANQMVK
  observed amide hydrogen exchange rate constant kobs: 0.00146

## HQGVMVGMGQK
  observed amide hydrogen exchange rate constant kobs: 0.00127

## YPALHKPENQDIDWGALEGETR
  observed amide hydrogen exchange rate constant kobs: 0.0022

## PVHHGVNQLK
  observed amide hydrogen exchange rate constant kobs: 0.00235

## VFSGLVSTGLK
  observed amide hydrogen exchange rate constant kobs: 0.00112

## EGLELPEDEEEK
  observed amide hydrogen exchange rate constant kobs: 0.00262

## TGTAEMSSILEER
  observed amide hydrogen exchange rate constant kobs: 0.00127

## GFSTWLK
  observed amide hydrogen exchange rate constant kobs: 0.000875

## RAAEDDEDDDVDTKK
  observed amide hydrogen exchange rate constant kobs: 0.0039

## AIIIFVPVPQLK
  observed amide hydrogen exchange rate constant kobs: 0.000266

## LQAALDDEEAGGRPAMEPGNGSLDLGGDSAGR
  observed amide hydrogen exchange rate constant kobs: 0.00232

## TAFDEAIAELDTLNEDSYK
  observed amide hydrogen exchange rate constant kobs: 0.00156

## VFLAQK
  observed amide hydrogen exchange rate constant kobs: 0.00073

## HLQLAIRNDEELNK
  observed amide hydrogen exchange rate constant kobs: 0.00184

## NWMNSLGVNPR
  observed amide hydrogen exchange rate constant kobs: 0.000991

## VMVQPINLIFR
  observed amide hydrogen exchange rate constant kobs: 0.000387

## DLPLLLFR
  observed amide hydrogen exchange rate constant kobs: 0.000629

## PFEVPFLK
  observed amide hydrogen exchange rate constant kobs: 0.000569

## LGDVYVNDAFGTAHR
  observed amide hydrogen exchange rate constant kobs: 0.00197

## YTPSGQAGAAASESLFVSNHAY
  observed amide hydrogen exchange rate constant kobs: 0.00149

## AVLVDLEPGTMDSVR
  observed amide hydrogen exchange rate constant kobs: 0.00126

## AMGIMNSFVNDIFER
  observed amide hydrogen exchange rate constant kobs: 0.00109

## YYVTIIDAPGHR
  observed amide hydrogen exchange rate constant kobs: 0.00127

## FPGQLNADLRK
  observed amide hydrogen exchange rate constant kobs: 0.00145

## EGIPPDQQR
  observed amide hydrogen exchange rate constant kobs: 0.00171

## SVETIK
  observed amide hydrogen exchange rate constant kobs: 0.000994

## TLSDYNIQK
  observed amide hydrogen exchange rate constant kobs: 0.00134

## ILEFFGLK
  observed amide hydrogen exchange rate constant kobs: 0.00112

## IIAPPERK
  observed amide hydrogen exchange rate constant kobs: 0.00142

## DIFQEIFDK
  observed amide hydrogen exchange rate constant kobs: 0.00131

## EGMNIVEAMER
  observed amide hydrogen exchange rate constant kobs: 0.00123

## VELFFK
  observed amide hydrogen exchange rate constant kobs: 0.000868

## NLPFDFTWK
  observed amide hydrogen exchange rate constant kobs: 0.00101

## YHTINGHNAEVR
  observed amide hydrogen exchange rate constant kobs: 0.00291

## TVALWDLR
  observed amide hydrogen exchange rate constant kobs: 0.000702

## LIAPVAEEEATVPNNK
  observed amide hydrogen exchange rate constant kobs: 0.00102

## AMADPEVQQIMSDPAMR
  observed amide hydrogen exchange rate constant kobs: 0.00104

## SYELPDGQVITIGNER
  observed amide hydrogen exchange rate constant kobs: 0.000908

## EVLAGR
  observed amide hydrogen exchange rate constant kobs: 0.00244

## ARFEELNADLFR
  observed amide hydrogen exchange rate constant kobs: 0.00175

## GLTPSQIGVILR
  observed amide hydrogen exchange rate constant kobs: 0.00062

## ETIEQEK
  observed amide hydrogen exchange rate constant kobs: 0.00152

## NIEDVIAQGIGK
  observed amide hydrogen exchange rate constant kobs: 0.00103

## VDNDENEHQLSLR
  observed amide hydrogen exchange rate constant kobs: 0.00288

## LFIGGLSFETTDDSLREHFEK
  observed amide hydrogen exchange rate constant kobs: 0.00239

## DNSTMGYMMAK
  observed amide hydrogen exchange rate constant kobs: 0.00115

## GFGFVTYATVEEVDAAMNARPHK
  observed amide hydrogen exchange rate constant kobs: 0.00098

## RALEQQVEEMK
  observed amide hydrogen exchange rate constant kobs: 0.000806

## LVQDVANNTNEEAGDGTTTATVLAR
  observed amide hydrogen exchange rate constant kobs: 0.00155

## IFVGGLNPEATEEK
  observed amide hydrogen exchange rate constant kobs: 0.00108

## SSTPEEVK
  observed amide hydrogen exchange rate constant kobs: 0.00152

## LAYINPDLALEEK
  observed amide hydrogen exchange rate constant kobs: 0.00137

## ELSDFISYLQR
  observed amide hydrogen exchange rate constant kobs: 0.000898

## QQISLATQMVR
  observed amide hydrogen exchange rate constant kobs: 0.00147

## DEFEGLFK
  observed amide hydrogen exchange rate constant kobs: 0.00163

## DDGLFSGDPNWFPK
  observed amide hydrogen exchange rate constant kobs: 0.00189

## AEDNADTLALVFEAPNQEK
  observed amide hydrogen exchange rate constant kobs: 0.00102

## STAGDTHLGGEDFDNR
  observed amide hydrogen exchange rate constant kobs: 0.00417

## LDIDSPPITAR
  observed amide hydrogen exchange rate constant kobs: 0.00107

## GAEAANVTGPGGVPVQGSK
  observed amide hydrogen exchange rate constant kobs: 0.00103

## QHYIDLK
  observed amide hydrogen exchange rate constant kobs: 0.00137

## GYISPYFINTSK
  observed amide hydrogen exchange rate constant kobs: 0.000598

## DLSHIGDAVVISCAK
  observed amide hydrogen exchange rate constant kobs: 0.00192

## HQPTAIIAK
  observed amide hydrogen exchange rate constant kobs: 0.00045

## TLAQLNPESSLFIIASK
  observed amide hydrogen exchange rate constant kobs: 0.00061

## VLTVINQTQK
  observed amide hydrogen exchange rate constant kobs: 0.00141

## VLLPEYGGTK
  observed amide hydrogen exchange rate constant kobs: 0.00144

## DSPSVWAAVPGK
  observed amide hydrogen exchange rate constant kobs: 0.000933

## ALELTGLK
  observed amide hydrogen exchange rate constant kobs: 0.00115

## SESPKEPEQLRK
  observed amide hydrogen exchange rate constant kobs: 0.00165

## FDLMYAK
  observed amide hydrogen exchange rate constant kobs: 0.000933

## AGGFLMK
  observed amide hydrogen exchange rate constant kobs: 0.00127

## STTTGHLIYK
  observed amide hydrogen exchange rate constant kobs: 0.00173

## ASILNTWISLK
  observed amide hydrogen exchange rate constant kobs: 0.000492

## VAPEEHPVLLTEAPLNPK
  observed amide hydrogen exchange rate constant kobs: 0.00104

## IWHHTFYNELR
  observed amide hydrogen exchange rate constant kobs: 0.00224

## VYALPEDLVEVNPK
  observed amide hydrogen exchange rate constant kobs: 0.0011

## ILGLLDAYLK
  observed amide hydrogen exchange rate constant kobs: 0.00089

## GIVDQSQQAYQEAFEISK
  observed amide hydrogen exchange rate constant kobs: 0.000918

## LLQDFFNGK
  observed amide hydrogen exchange rate constant kobs: 0.00068

## SLEGDLEDLK
  observed amide hydrogen exchange rate constant kobs: 0.00103

## NNQITNNQR
  observed amide hydrogen exchange rate constant kobs: 0.00134

## ITLPVDFVTADKFDENAK
  observed amide hydrogen exchange rate constant kobs: 0.0013

## YAVLYQPLFDK
  observed amide hydrogen exchange rate constant kobs: 0.000677

## GFGFILFK
  observed amide hydrogen exchange rate constant kobs: 0.000667

## INISEGNCPER
  observed amide hydrogen exchange rate constant kobs: 0.000833

## LVILANNCPALR
  observed amide hydrogen exchange rate constant kobs: 0.00112

## VVVSGLPPSGSWQDLK
  observed amide hydrogen exchange rate constant kobs: 0.000996

## ALAENSGVK
  observed amide hydrogen exchange rate constant kobs: 0.00135

## GDGPVQGIINFEQK
  observed amide hydrogen exchange rate constant kobs: 0.000693

## ALTSELANAR
  observed amide hydrogen exchange rate constant kobs: 0.00115

## AGNLGGGVVTIER
  observed amide hydrogen exchange rate constant kobs: 0.000802

## FAQPGSFEYEYAMR
  observed amide hydrogen exchange rate constant kobs: 0.00134

## LQAVEVVITHLAPGTK
  observed amide hydrogen exchange rate constant kobs: 0.000819

## GFGFVDFNSEEDAK
  observed amide hydrogen exchange rate constant kobs: 0.00238

## NFSDNQLQEGK
  observed amide hydrogen exchange rate constant kobs: 0.00213

## TVTNAVVTVPAYFNDSQR
  observed amide hydrogen exchange rate constant kobs: 0.000806

## LGIHEDSTNR
  observed amide hydrogen exchange rate constant kobs: 0.00441

## VTLTSEEEAR
  observed amide hydrogen exchange rate constant kobs: 0.00196

## EIVLADVIDNDSWR
  observed amide hydrogen exchange rate constant kobs: 0.00114

## LLIHQSLAGGIIGVK
  observed amide hydrogen exchange rate constant kobs: 0.000892

## TIGGGDDSFNTFFSETGAGK
  observed amide hydrogen exchange rate constant kobs: 0.00246

## EMLQQSK
  observed amide hydrogen exchange rate constant kobs: 0.00166

## PAAPPAPGPGQLTLR
  observed amide hydrogen exchange rate constant kobs: 0.000936

## ALENDPDCR
  observed amide hydrogen exchange rate constant kobs: 0.00109

## GLAPDLPEDLYHLIK
  observed amide hydrogen exchange rate constant kobs: 0.00112

## IFGVTTLDIVR
  observed amide hydrogen exchange rate constant kobs: 0.000765

## IYVLLR
  observed amide hydrogen exchange rate constant kobs: 0.000454

## GYSFTTTAER
  observed amide hydrogen exchange rate constant kobs: 0.00184

## GLSEDTTEETLK
  observed amide hydrogen exchange rate constant kobs: 0.003

## DLADELALVDVIEDK
  observed amide hydrogen exchange rate constant kobs: 0.00109

## VRVELSNGEK
  observed amide hydrogen exchange rate constant kobs: 0.00127

## IEDGNNFGVAVQEK
  observed amide hydrogen exchange rate constant kobs: 0.00127

## ADLINNLGTIAK
  observed amide hydrogen exchange rate constant kobs: 0.000815
